In US20260242478A1 (published 2026):
Where no end group is shown, it is not given here.

Columns and labels:
PSMA Fab (006 PSMA Fab) [1] = biological target: T1, PSMA Fab (006 PSMA Fab); assay: phage ELISA; PSMA Fab on plate pre-incubated with PSMA antigen as competitor, anti-M13 HRP detection;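 further: crude clonal phage supernatants added to Fab-coated wells still holding PSMA antigen in blocking buffer, with bound phage as read-out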
T1 construct: In the phage ELISA the PSMA Fab was biotinylated and captured on neutravidin coated plates; also called Anti-PSMA Fab; anti-PSMA Fab
Procedure: (§1) Clonal phage were harvested as crude supernatants and screened via standard ELISAs. […] Prior to the addition of clonal phage. wells were incubated with blocking buffer and PSMA antigen or blocking buffer alone. Without washing or aspirating, clonal phage supernatants were then added to the wells and incubated for a short time. Wells were then washed followed by detection of bound phage using a horse radish conjugated anti-M13 antibody.

PSMA Fab (006 PSMA Fab) [2] = biological target: T1, PSMA Fab (006 PSMA Fab); assay: phage ELISA; biotinylated PSMA Fab on neutravidin plate, clonal phage supernatant, anti-M13 HRP detection;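 further: wells preincubated with PSMA antigen in blocking buffer or with blocking buffer only before clonal phage were added for a short incubation, then bound phage detected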
Procedure: as §1

[3] = biological target: T2, Anti-CD28 Fab (SEQ ID NOs: 696, 697); assay: phage ELISA on plate-bound anti-CD28 Fab pre-incubated with CD28 antigen as competitor
T2 construct: In the phage ELISA the Fab was biotinylated and captured on neutravidin coated plates
T2 sequence (VH, as listed by the source, chain 1 of 2): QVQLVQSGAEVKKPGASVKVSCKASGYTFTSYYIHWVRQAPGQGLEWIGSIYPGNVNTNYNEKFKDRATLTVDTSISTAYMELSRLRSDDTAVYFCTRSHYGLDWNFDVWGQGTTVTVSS
T2 sequence (VL, as listed by the source, chain 2 of 2): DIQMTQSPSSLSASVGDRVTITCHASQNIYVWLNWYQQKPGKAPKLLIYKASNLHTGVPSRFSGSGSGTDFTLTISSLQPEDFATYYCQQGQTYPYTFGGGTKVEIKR
Procedure: (§2) Clonal phage were harvested as crude supematants and screened via standard ELISAs. […] Prior to the addition of clonal phage, wells were incubated with blocking buffer and CD28 antigen or blocking buffer alone. Without washing or aspirating, clonal phage supematants were then added to the wells and incubated for a short time. Wells were then washed followed by detection of bound phage using a horse radish conjugated anti-M13 antibody.

[4] = biological target: T2, Anti-CD28 Fab (SEQ ID NOs: 696, 697); assay: phage ELISA; clonal phage supernatant on biotinylated anti-CD28 Fab captured on neutravidin plate, anti-M13-HRP detection
Procedure: as §2

[5] = biological target: T3, Anti-CD28 Fab (SEQ ID NOs: 696, 697); assay: phage binding ELISA; biotinylated anti-CD28 Fab on neutravidin plate, bound phage detected with anti-M13-HRP;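 further: clonal phage tested as crude supernatants, given a short incubation in the Fab-captured wells before bound phage were read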
T3 construct: In the phage ELISA the Fab was biotinylated and captured on neutravidin coated plates
T3 sequence (VH, as listed by the source, chain 1 of 2): as the sequence (VH, as listed by the source, chain 1 of 2) above
T3 sequence (VL, as listed by the source, chain 2 of 2): as the sequence (VL, as listed by the source, chain 2 of 2) above
Procedure: (§3) Clonal phage were harvested as crude supematants and screened via standard ELISAs. […] Prior to the addition of clonal phage, wells were incubated with blocking buffer and CD28 antigen or blocking buffer alone. Without washing or aspirating, clonal phage supematants were then added to the wells and incubated for a short time. Wells were then washed followed by detection of bound phage using a horse radish conjugated anti-M13 antibody. Clonal phage of interest were then sent for sequence analysis.

[6] = biological target: T3, Anti-CD28 Fab (SEQ ID NOs: 696, 697); assay: phage binding ELISA on captured anti-CD28 Fab, wells pre-incubated with CD28 antigen as competitor
Procedure: as §3

PSMA Fab (006 PSMA Fab) [7] = biological target: T4, PSMA Fab (006 PSMA Fab) (biotinylated for capture on neutravidin plates (site not stated)); assay: clonal phage ELISA on biotinylated PSMA Fab captured on neutravidin plates, anti-M13-HRP detection;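 further: crude clonal phage supernatants added to wells preincubated with PSMA antigen or with blocking buffer only (no wash between), briefly incubated, then washed before detecting bound phage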
T4 construct: also called Anti-PSMA Fab

PSMA Fab (006 PSMA Fab) [8] = biological target: T4, PSMA Fab (006 PSMA Fab); assay: clonal phage ELISA on captured PSMA Fab pre-incubated with PSMA antigen as competitor, anti-M13-HRP detection;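 further: wells blocked with buffer plus PSMA antigen before phage addition, with blocking buffer alone as the no-competitor control, bound phage detected after washing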
Procedure: as §1

## YHKWCTPEWMCVFD [Phage-2825 (Peptide-180 library clone)]
PSMA Fab (006 PSMA Fab) [1]
  phage binding ELISA signal (Anti-PSMA Fab, PSMA antigen present): 0.0666
PSMA Fab (006 PSMA Fab) [2]
  Phage binding ELISA signal, Anti-PSMA Fab: 0.474

## TCSAGASNKLSLCL [Phage-1378 peptide (SEQ ID NO: 1674)]
[3]
  Anti-CD28 Fab signal in the presence of CD28 (phage binding ELISA): 0.06
[4]
  Anti-CD28 Fab signal (phage binding ELISA): 2.18

## SSNWCTPAWMCVTS [Phage-2826 (Peptide-180 library clone)]
PSMA Fab (006 PSMA Fab) [1]
  phage binding ELISA signal (Anti-PSMA Fab, PSMA antigen present): 0.0627
PSMA Fab (006 PSMA Fab) [2]
  Phage binding ELISA signal, Anti-PSMA Fab: 0.47

## NCSAGATYPWPLCL [Phage-1381 peptide (SEQ ID NO: 1677)]
[3]
  Anti-CD28 Fab signal in the presence of CD28 (phage binding ELISA): 0.07
[4]
  Anti-CD28 Fab signal (phage binding ELISA): 2.17

## RCSAGFHYPLSLCL [Phage-1380 peptide (SEQ ID NO: 1676)]
[3]
  Anti-CD28 Fab signal in the presence of CD28 (phage binding ELISA): 0.06
[4]
  Anti-CD28 Fab signal (phage binding ELISA): 2.18

## GLPWCVPQWMCVVS [Phage-2824 (Peptide-180 library clone)]
PSMA Fab (006 PSMA Fab) [1]
  phage binding ELISA signal (Anti-PSMA Fab, PSMA antigen present): 0.0721
PSMA Fab (006 PSMA Fab) [2]
  Phage binding ELISA signal, Anti-PSMA Fab: 0.482

## TCAAGAHWPWPTCF [Phage-1385 peptide (SEQ ID NO: 1681)]
[3]
  Anti-CD28 Fab signal in the presence of CD28 (phage binding ELISA): 0.07
[4]
  Anti-CD28 Fab signal (phage binding ELISA): 2.15

## GEKWCSPAWMCEWL [Phage-2828 (Peptide-180 library clone)]
PSMA Fab (006 PSMA Fab) [1]
  phage binding ELISA signal (Anti-PSMA Fab, PSMA antigen present): 0.0817
PSMA Fab (006 PSMA Fab) [2]
  Phage binding ELISA signal, Anti-PSMA Fab: 0.459

B1: Phage-1433 (peptide-92 library clone, SEQ ID NO: 1729) (peptide)
peptide: PCAAGAMWPWPVCL
notes: Tested as clonal phage supernatant; not shown: fused to the pIII filament of the bacteriophage
[5]
  Anti-CD28 Fab signal (phage binding ELISA): 1.95
[6]
  Anti-CD28 Fab signal in the presence of CD28 (phage binding ELISA): 0.06

B2: Phage-1432 (peptide-92 library clone, SEQ ID NO: 1728) (peptide)
peptide: TCSAGAHYPWPDCI
notes: as for B1
[5]
  Anti-CD28 Fab signal (phage binding ELISA): 1.95
[6]
  Anti-CD28 Fab signal in the presence of CD28 (phage binding ELISA): 0.07

## TCSAGATYTWSKCF [Phage-1386 peptide (SEQ ID NO: 1682)]
[3]
  Anti-CD28 Fab signal in the presence of CD28 (phage binding ELISA): 0.06
[4]
  Anti-CD28 Fab signal (phage binding ELISA): 2.15

## GVNWCVPPWMCLND [Phage-2823 (Peptide-180 library clone)]
PSMA Fab (006 PSMA Fab) [1]
  phage binding ELISA signal (Anti-PSMA Fab, PSMA antigen present): 0.0879
PSMA Fab (006 PSMA Fab) [2]
  Phage binding ELISA signal, Anti-PSMA Fab: 0.484

## EVKWCTPYWMCIDT [Phage-2833 (Peptide-180 library clone)]
PSMA Fab (006 PSMA Fab) [1]
  phage binding ELISA signal (Anti-PSMA Fab, PSMA antigen present): 0.072
PSMA Fab (006 PSMA Fab) [2]
  Phage binding ELISA signal, Anti-PSMA Fab: 0.443

## NTNWCTPPWMCEGL [Phage-2834 (Peptide-180 library clone)]
PSMA Fab (006 PSMA Fab) [1]
  phage binding ELISA signal (Anti-PSMA Fab, PSMA antigen present): 0.0664
PSMA Fab (006 PSMA Fab) [2]
  Phage binding ELISA signal, Anti-PSMA Fab: 0.442

## AFPSCIPEWMCSGM [Phage-2831 (Peptide-180 library clone)]
PSMA Fab (006 PSMA Fab) [1]
  phage binding ELISA signal (Anti-PSMA Fab, PSMA antigen present): 0.149
PSMA Fab (006 PSMA Fab) [2]
  Phage binding ELISA signal, Anti-PSMA Fab: 0.45

## QAIWCIPDWMCVQN [Phage-2830 (Peptide-180 library clone)]
PSMA Fab (006 PSMA Fab) [1]
  phage binding ELISA signal (Anti-PSMA Fab, PSMA antigen present): 0.137
PSMA Fab (006 PSMA Fab) [2]
  Phage binding ELISA signal, Anti-PSMA Fab: 0.454

B3: Phage-2820 (Peptide-180 library clone) (peptide)
peptide: FEKWCTPLWMCADS
modifications: cysteine pairing not given here; also: fused to pIII, displayed on bacteriophage
PSMA Fab (006 PSMA Fab) [1]
  phage binding ELISA signal (Anti-PSMA Fab, PSMA antigen present): 0.0612
PSMA Fab (006 PSMA Fab) [2]
  Phage binding ELISA signal, Anti-PSMA Fab: 0.5

## SVHMCKPPWMCQSM [Phage-2818]
PSMA Fab (006 PSMA Fab) [7]
  Phage binding ELISA signal, Anti-PSMA Fab: 0.509
PSMA Fab (006 PSMA Fab) [8]
  Phage binding ELISA signal, Anti-PSMA Fab in presence of PSMA: 0.077

## TCAAGANWEWPWCF [Phage-1375 peptide (SEQ ID NO: 1671)]
[3]
  Anti-CD28 Fab signal in the presence of CD28 (phage binding ELISA): 0.08
[4]
  Anti-CD28 Fab signal (phage binding ELISA): 2.22

## TCAAGAAYPWPLCF [Phage-1377 peptide (SEQ ID NO: 1673)]
[3]
  Anti-CD28 Fab signal in the presence of CD28 (phage binding ELISA): 0.11
[4]
  Anti-CD28 Fab signal (phage binding ELISA): 2.18

## EFKWCSPAQLCVNG [Phage-2832 (Peptide-180 library clone)]
PSMA Fab (006 PSMA Fab) [1]
  phage binding ELISA signal (Anti-PSMA Fab, PSMA antigen present): 0.0526
PSMA Fab (006 PSMA Fab) [2]
  Phage binding ELISA signal, Anti-PSMA Fab: 0.447

## TCAAGATYAWPYCV [Phage-1376 peptide (SEQ ID NO: 1672)]
[3]
  Anti-CD28 Fab signal in the presence of CD28 (phage binding ELISA): 0.09
[4]
  Anti-CD28 Fab signal (phage binding ELISA): 2.21

B4: Phage-2819 (Peptide-180 library clone) (peptide)
peptide: IDKWCKPVWMCADN
modifications: cysteine pairing not given here; also: fused to pIII, displayed on bacteriophage
PSMA Fab (006 PSMA Fab) [1]
  phage binding ELISA signal (Anti-PSMA Fab, PSMA antigen present): 0.0659
PSMA Fab (006 PSMA Fab) [2]
  Phage binding ELISA signal, Anti-PSMA Fab: 0.5

## NCSAGAQWPWPICL [Phage-1383 peptide (SEQ ID NO: 1679)]
[3]
  Anti-CD28 Fab signal in the presence of CD28 (phage binding ELISA): 0.08
[4]
  Anti-CD28 Fab signal (phage binding ELISA): 2.15

B5: Phage-1431 (peptide-92 library clone, SEQ ID NO: 1727) (peptide)
peptide: LCKPGVPNSWPTCL
notes: as for B1
[5]
  Anti-CD28 Fab signal (phage binding ELISA): 1.95
[6]
  Anti-CD28 Fab signal in the presence of CD28 (phage binding ELISA): 0.06

## DIRWCTPPWMCMHL [Phage-2822 (Peptide-180 library clone)]
PSMA Fab (006 PSMA Fab) [1]
  phage binding ELISA signal (Anti-PSMA Fab, PSMA antigen present): 0.258
PSMA Fab (006 PSMA Fab) [2]
  Phage binding ELISA signal, Anti-PSMA Fab: 0.486

## DVKWCTPRWMCELS [Phage-2829 (Peptide-180 library clone)]
PSMA Fab (006 PSMA Fab) [1]
  phage binding ELISA signal (Anti-PSMA Fab, PSMA antigen present): 0.0913
PSMA Fab (006 PSMA Fab) [2]
  Phage binding ELISA signal, Anti-PSMA Fab: 0.457

## LCAAGAHYPWPQCL [Phage-1384 peptide (SEQ ID NO: 1680)]
[3]
  Anti-CD28 Fab signal in the presence of CD28 (phage binding ELISA): 0.07
[4]
  Anti-CD28 Fab signal (phage binding ELISA): 2.15

## TCSAGATYTWPWCF [Phage-1388 peptide (SEQ ID NO: 1684)]
[3]
  Anti-CD28 Fab signal in the presence of CD28 (phage binding ELISA): 0.07
[4]
  Anti-CD28 Fab signal (phage binding ELISA): 2.14

## LEKWCIPSQLCQLD [Phage-2827 (Peptide-180 library clone)]
PSMA Fab (006 PSMA Fab) [1]
  phage binding ELISA signal (Anti-PSMA Fab, PSMA antigen present): 0.0743
PSMA Fab (006 PSMA Fab) [2]
  Phage binding ELISA signal, Anti-PSMA Fab: 0.464

## WDNWCTPSWMCSTA [Phage-2821 (Peptide-180 library clone)]
PSMA Fab (006 PSMA Fab) [1]
  phage binding ELISA signal (Anti-PSMA Fab, PSMA antigen present): 0.0814
PSMA Fab (006 PSMA Fab) [2]
  Phage binding ELISA signal, Anti-PSMA Fab: 0.488

## MCAAGFHYPWPACL (cysteine pairing not given here; also: fused to phage pIII protein) [Phage-1374 peptide (SEQ ID NO: 1670)]
[3]
  Anti-CD28 Fab signal in the presence of CD28 (phage binding ELISA): 0.1
[4]
  Anti-CD28 Fab signal (phage binding ELISA): 2.23

## SCAAGAMYSWPTCL [Phage-1382 peptide (SEQ ID NO: 1678)]
[3]
  Anti-CD28 Fab signal in the presence of CD28 (phage binding ELISA): 0.08
[4]
  Anti-CD28 Fab signal (phage binding ELISA): 2.16

## MCSAGANWPWPLCF [Phage-1379 peptide (SEQ ID NO: 1675)]
[3]
  Anti-CD28 Fab signal in the presence of CD28 (phage binding ELISA): 0.07
[4]
  Anti-CD28 Fab signal (phage binding ELISA): 2.18

## LCNAGATYSWPTCL [Phage-1387 peptide (SEQ ID NO: 1683)]
[3]
  Anti-CD28 Fab signal in the presence of CD28 (phage binding ELISA): 0.06
[4]
  Anti-CD28 Fab signal (phage binding ELISA): 2.14
